Assay results taken from paper PMC4738354, “Volta phase plate cryo-EM of the small protein complex Prx3” (Nature Communications, 2016).

Biological target: the molecule itself
Test: cryo-EM structure; single-particle cryo-EM with Volta phase plate, frozen-hydrated hPrx3 in thick ice; two data sets (7.3 Å and 4.4 Å reconstructions); D6 symmetry imposed in 3D classification of the first data set

B1: human peroxiredoxin-3 (natural protein, UniProt P30048 62-256, looked up)
chain: APAVTQHAPYFKGTAVVNGEFKDLSLDDFKGKYLVLFFYPLDFTFVCPTEIVAFSDKANEFHDVNCEVVAVSVDSHFSHLAWINTPRKNGGLGHMNIALLSDLTKQISRDYGVLLEGSGLALRGLFIIDPNGVIKHLSVNDLPVGRSVEETLRLVKAFQYVETHGEVCPANWTPDSPTIKPSPAASKEYFQKVNQ
notes: peroxiredoxin-3 (Prx3), human mitochondrial isoform; also called hPrx3; Prx3; source: Rosetta (DE3) cells (Novagen), purified (HisTrap, Superdex 200 gel filtration, TEV cleavage of the His-tag); copies: 12
stoichiometry N: 12
